# Data: patent US20050048070A1 (published 2005)
# T1: K18(1-65) GST fusion protein (human, UniProt P05783 2-66)
# T1 construct: Alone, not complexed; not shown: glutathione S-transferase (GST) fusion partner, modified pGEX-2T vector
# T1 sequence: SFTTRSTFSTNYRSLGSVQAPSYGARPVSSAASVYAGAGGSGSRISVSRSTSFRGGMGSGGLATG
# T2: K8(1-85)/K18(1-187) heterotypic complex (human, UniProt P05787 2-86; P05783 2-188)
# T2 construct: Heterotypic complex of two GST fusion proteins; not shown: glutathione S-transferase (GST) fusion partner, modified pGEX-2T vector
# T2 chain 1: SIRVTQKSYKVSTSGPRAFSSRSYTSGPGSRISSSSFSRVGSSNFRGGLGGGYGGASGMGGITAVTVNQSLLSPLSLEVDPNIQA
# T2 chain 2: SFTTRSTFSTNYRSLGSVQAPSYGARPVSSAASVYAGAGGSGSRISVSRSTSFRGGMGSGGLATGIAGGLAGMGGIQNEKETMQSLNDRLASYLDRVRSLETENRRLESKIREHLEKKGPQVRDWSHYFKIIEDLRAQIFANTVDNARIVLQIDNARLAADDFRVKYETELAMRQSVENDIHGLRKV
# T3: K8(240-483)/intact K18 heterotypic complex
# T3 construct: one member of the group m25; not shown: N-terminal GST carrier (modified pGEX-2T) and its linker on the keratin constructs
# T3 chain 1: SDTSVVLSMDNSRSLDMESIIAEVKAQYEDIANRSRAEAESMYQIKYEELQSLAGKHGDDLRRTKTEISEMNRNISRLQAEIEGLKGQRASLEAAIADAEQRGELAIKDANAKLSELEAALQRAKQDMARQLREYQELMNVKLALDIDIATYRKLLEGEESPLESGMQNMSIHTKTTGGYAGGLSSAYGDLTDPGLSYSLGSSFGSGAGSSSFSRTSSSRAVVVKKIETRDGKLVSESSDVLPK
# T3 chain 2: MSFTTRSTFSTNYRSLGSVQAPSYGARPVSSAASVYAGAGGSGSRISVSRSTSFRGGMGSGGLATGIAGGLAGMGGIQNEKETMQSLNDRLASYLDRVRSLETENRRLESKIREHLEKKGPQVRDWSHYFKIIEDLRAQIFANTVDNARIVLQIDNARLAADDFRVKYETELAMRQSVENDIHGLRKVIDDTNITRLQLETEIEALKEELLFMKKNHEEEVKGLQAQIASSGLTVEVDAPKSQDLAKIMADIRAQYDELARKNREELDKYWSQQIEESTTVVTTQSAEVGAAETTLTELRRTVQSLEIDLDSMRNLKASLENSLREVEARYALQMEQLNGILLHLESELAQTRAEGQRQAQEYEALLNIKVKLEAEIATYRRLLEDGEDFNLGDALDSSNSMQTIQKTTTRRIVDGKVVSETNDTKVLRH
# T4: K8(343-483)/intact K18 heterotypic complex
# T4 construct: one member of the group m25; not shown: N-terminal GST carrier (modified pGEX-2T) and its linker on the keratin constructs
# T4 chain 1: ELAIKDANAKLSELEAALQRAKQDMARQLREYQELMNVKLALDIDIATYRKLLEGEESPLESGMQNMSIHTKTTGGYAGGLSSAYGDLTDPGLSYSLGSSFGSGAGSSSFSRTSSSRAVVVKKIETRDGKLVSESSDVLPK
# T4 chain 2: T3 chain 2
# T5: K8(1-85)/intact K18 heterotypic complex (human, UniProt P05787 2-86; P05783 2-430)
# T5 construct: Heterotypic complex of two GST fusion proteins; also called intact K8(1-85)/intact K18; not shown: glutathione S-transferase (GST) fusion partner, modified pGEX-2T vector
# T5 chain 1: T2 chain 1
# T5 chain 2: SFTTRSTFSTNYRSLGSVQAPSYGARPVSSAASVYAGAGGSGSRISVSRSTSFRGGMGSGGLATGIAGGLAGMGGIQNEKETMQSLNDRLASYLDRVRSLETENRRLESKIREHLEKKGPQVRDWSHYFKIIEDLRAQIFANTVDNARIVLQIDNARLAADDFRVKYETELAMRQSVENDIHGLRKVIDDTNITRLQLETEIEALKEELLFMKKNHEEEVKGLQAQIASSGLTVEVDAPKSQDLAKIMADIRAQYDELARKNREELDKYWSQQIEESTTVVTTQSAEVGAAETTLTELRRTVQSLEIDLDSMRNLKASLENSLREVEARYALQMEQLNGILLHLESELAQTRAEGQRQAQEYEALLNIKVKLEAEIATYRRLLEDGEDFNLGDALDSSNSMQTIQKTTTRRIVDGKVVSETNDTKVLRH
# B1: human monoclonal IgM antibody COU-1 (antibody, V domains shown)
# VH: GAEVKKPGASVKVSCKASDYTFSSYYMHWVRQAPGQGLEWMGIINPSGGSTSYAQKFQGRVTMTRDTSTNTVYMELSSLRSEDTAVYYCARDQVVVAATLSNYGMDVWGQGTTVTVSS
# VL: ELTQSPGTLSLSPGERATLSCRASQSVSSSYLAWYQQKPGQAPRLLIYDASNRATGIPARFSGSGSGTDFTLTISSLEPEDFAVYYCQQGTNWGIAFGQGTRLDIKR
# notes: Human IgM with kappa light chain, secreted by hybridoma B9165 (ECACC 87040201), purified from culture supernatant; also called HMab COU-1; HuMab COU-1
# Assays:
# [1] = target: T1, K18(1-65) GST fusion protein; assay: Western blot of SDS-PAGE-separated GST fusion proteins
# [2] = target: T2, K8(1-85)/K18(1-187) heterotypic complex; assay: heterotypic association assay: blotted K8 proteins incubated with purified K18(1-187), then stained with COU-1
# Procedure: Panels of different C- or N-terminal-deleted or intact K8 and K18 proteins were separated by SDS-PAGE and transferred to a PVDF membrane, as described above. After blocking, the membrane was incubated for 16 h at 4° C. with 100 μg/ml of purified K8 or K18 protein in PBS, 2% BSA and 4 M urea; if K8 proteins were transferred to the membrane, the membrane was subsequently incubated with a purified K18 protein, and vice versa (38).
# [3] = target: T3, K8(240-483)/intact K18 heterotypic …; assay: summary map of the heterotypic association assay: GST deletion protein incubated with the complementary keratin, then stained with COU-1
# [4] = target: T4, K8(343-483)/intact K18 heterotypic …; assay: as above
# [5] = target: T5, K8(1-85)/intact K18 heterotypic complex; assay: as above
binder,measurement,setting,value
B1,binding result,[1],no binding (tested: COU-1 5 µg/ml)
same,binding result,[2],no binding (tested: 5 µg/ml COU-1 (P-0285))
same,binding result,[3],no binding (tested: 5 µg/ml COU-1 (P-0285))
same,binding result,[4],no binding (tested: 5 µg/ml COU-1 (P-0285))
same,binding result,[5],no binding (tested: 5 µg/ml COU-1 (P-0285))
